From PMC7619190, “Pervanadate-induced oxidation relieves autoinhibition of SRC protein tyrosine kinase” (Science signaling, 2026)
Where no end group is shown, it is not given here. [ ]: non-standard residue; d: D form. pY = N[C@@H](Cc1ccc(OP(=O)(O)O)cc1)C(=O)O

What was measured:
[1] = biological target: the molecule itself; experiment: non-reducing SDS-PAGE and immunoblot; HEK293T cells, PV time course, washed with PBS with catalase and NEM, lysed in 2% SDS with NEM; disulfide-linked dimer as slower migrating species
[2] = biological target: T1, human SRC SH2 domain (Gln147-Lys252), wild type (human, UniProt P12931-1 147-252); experiment: ITC; peptide (400 uM) titrated into SRC SH2 (40 uM) in the cell, 25 C, MicroCal PEAQ-ITC Automated; SH2 domain pretreated with 1 mM TCEP (reducing conditions); conditions: both partners purified
T1 construct: SRC SH2 domain, human, residues Gln147-Lys252, cloned in pETM11; numbering on UniProt P12931-1; Used after pretreatment with 1 mM TCEP (reduced) or 0.1 mM pervanadate (cysteines oxidised; which residues were oxidised in this sample was not determined); The two states are told apart by the assay (a1, a2); also called SH2^WT; SRC SH2^WT

| Binder | stoichiometry N [1] | binding result [2] |
| --- | --- | --- |
| peroxiredoxin 1 (PRDX1) (natural protein, human (endogenous in HEK293T), UniProt Q06830 1-199, looked up, peroxiredoxin 1, endogenous in HEK293T cells; Disulfide-linked dimer seen on non-reducing gels; source: endogenous, HEK293T lysate) MSSGNAKIGHPAPNFKATAVMPDGQFKDISLSDYKGKYVVFFFYPLDFTFVCPTEIIAFSDRAEEFKKLNCQVIGASVDSHFCHLAWVNTPKKQGGLGPMNIPLVSDPKRTIAQDYGVLKADEGISFRGLFIIDDKGILRQITVNDLPVGRSVDETLRLVQAFQFTDKHGEVCPAGWKPGSDTIKPDVQKSKEYFSKQK | 2 |  |
| EPQ[pY]EEIP (source: synthetic peptide, bought: Biosynth (95% purity)) [optimized SRC binding phosphopeptide (EPQpYEEIP)] |  | binds |
